Source: PMC11009412, “Pathogenic mutations of human phosphorylation sites affect protein–protein interactions” (Nature Communications, 2024)

How the values were obtained:
14-3-3 epsilon (YWHAE) [1] = biological target: 14-3-3 epsilon (YWHAE) (UniProt P62258); assay: ITC; PEAQ-ITC, 18 °C, 400 µM peptide in the syringe, 25 µM 14-3-3ε in the reaction chamber; 20 mM HEPES pH 7.0, 150 mM NaCl, 2 mM DTT
GRB2 = GRB2 (UniProt P62993); assay: PRISMA peptide-membrane pull-down, SILAC MS; settings: reference: unphosphorylated wild-type peptide; sites Y1092
PLCG1 = PLCG1 (UniProt P19174); assay: PRISMA peptide-membrane pull-down, SILAC MS; settings: reference: unphosphorylated wild-type peptide; sites Y1092
STAT3 = STAT3 (UniProt P40763); assay: PRISMA peptide-membrane pull-down, SILAC MS; settings: reference: unphosphorylated wild-type peptide; sites Y1092
[2] = biological target: 14-3-3 beta/alpha (YWHAB) (UniProt P31946); assay: PRISMA alanine-scan pull-down, LFQ MS; settings: reference: unphosphorylated wild-type peptide; sites S102
14-3-3 epsilon (YWHAE) [3] = biological target: 14-3-3 epsilon (YWHAE) (UniProt P62258); assay: PRISMA alanine-scan pull-down, LFQ MS; settings: reference: unphosphorylated wild-type peptide; sites S102
14-3-3 eta (YWHAH) = 14-3-3 eta (YWHAH) (UniProt Q04917); assay: PRISMA alanine-scan pull-down, LFQ MS; settings: reference: unphosphorylated wild-type peptide; sites S102
14-3-3 gamma = 14-3-3 gamma (UniProt P61981); assay: PRISMA alanine-scan pull-down, LFQ MS; settings: reference: unphosphorylated wild-type peptide; sites S102
14-3-3 theta (YWHAQ) = 14-3-3 theta (YWHAQ) (UniProt P27348); assay: PRISMA alanine-scan pull-down, LFQ MS; settings: reference: unphosphorylated wild-type peptide; sites S102
14-3-3 zeta (YWHAZ) = 14-3-3 zeta (YWHAZ) (UniProt P63104); assay: PRISMA alanine-scan pull-down, LFQ MS; settings: reference: unphosphorylated wild-type peptide; sites S102

Substance: GATAD1 phosphopeptide 95-LRNTKYKpSAPAAEKK-109
- Kd (14-3-3 epsilon (YWHAE) [1]): 3.4 µM

Substance: EGFR (from UniProt P00533) pTyr1092 peptide
- other: SILAC ratio phos/wt (GRB2): > 20
- binding against the reference (PLCG1): stronger
- binding against the reference (STAT3): stronger

Substance: GATAD1 (from UniProt Q8WUU5) pS102 peptide
- binding against the reference [2]: stronger
- binding against the reference (14-3-3 epsilon (YWHAE) [3]): stronger
- binding against the reference (14-3-3 eta (YWHAH)): stronger
- binding against the reference (14-3-3 gamma): stronger
- binding against the reference (14-3-3 theta (YWHAQ)): stronger
- binding against the reference (14-3-3 zeta (YWHAZ)): stronger
